Measured values taken from publication PMC2756588.

T1: Lsb3, P43603
T1 sequence (P43603 385-451, looked up): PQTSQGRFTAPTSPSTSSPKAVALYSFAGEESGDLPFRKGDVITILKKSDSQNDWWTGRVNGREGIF

T2: Cdc25, P04821
T2 sequence (P04821 50-136, looked up): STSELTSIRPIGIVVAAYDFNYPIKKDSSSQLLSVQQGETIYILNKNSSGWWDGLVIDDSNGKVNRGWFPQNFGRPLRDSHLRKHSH

T3: Bzz1-2, P38822
T3 sequence (P38822 568-633, looked up): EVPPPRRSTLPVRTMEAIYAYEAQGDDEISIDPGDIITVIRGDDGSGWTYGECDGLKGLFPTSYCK

T4: Hse1, P38753
T4 sequence (P38753 208-285, looked up): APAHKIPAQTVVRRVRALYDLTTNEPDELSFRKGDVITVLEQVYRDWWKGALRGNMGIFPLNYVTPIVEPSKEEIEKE

T5: Pex13, P80667
T5 sequence (P80667 295-386, looked up): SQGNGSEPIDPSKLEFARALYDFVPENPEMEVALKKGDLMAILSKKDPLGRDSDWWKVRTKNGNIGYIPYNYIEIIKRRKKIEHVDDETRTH

T6: Boi2, P39969
T6 sequence (P39969 32-116, looked up): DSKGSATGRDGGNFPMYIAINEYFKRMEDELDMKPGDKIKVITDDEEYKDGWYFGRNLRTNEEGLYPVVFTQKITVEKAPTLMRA

T7: Bud14, P27637
T7 sequence (P27637 247-328, looked up): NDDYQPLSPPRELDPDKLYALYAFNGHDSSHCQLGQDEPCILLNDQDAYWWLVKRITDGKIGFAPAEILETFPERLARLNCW

T8: Hof1, Q05080
T8 sequence (Q05080 590-669, looked up): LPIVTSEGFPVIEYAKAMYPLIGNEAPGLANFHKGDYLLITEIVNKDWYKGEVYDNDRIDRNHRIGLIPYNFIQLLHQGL

T9: Abp1, P15891
T9 sequence (P15891 535-592, looked up): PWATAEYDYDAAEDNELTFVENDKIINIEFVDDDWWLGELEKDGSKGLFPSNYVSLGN

T10: Sla1-3, P32790
T10 sequence (P32790 344-424, looked up): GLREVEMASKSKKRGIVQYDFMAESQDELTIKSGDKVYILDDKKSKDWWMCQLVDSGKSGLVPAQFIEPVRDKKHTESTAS

T11: Sla1-2, P32790
T11 sequence (P32790 60-140, looked up): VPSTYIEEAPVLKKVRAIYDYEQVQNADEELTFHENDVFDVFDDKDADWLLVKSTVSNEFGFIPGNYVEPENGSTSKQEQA

T12: Bbc1, P47068
T12 sequence (P47068 1-78, looked up): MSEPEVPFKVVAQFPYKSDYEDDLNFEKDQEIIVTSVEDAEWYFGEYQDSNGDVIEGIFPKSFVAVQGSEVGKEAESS

T13: Fus1, P11710
T13 sequence (P11710 432-512, looked up): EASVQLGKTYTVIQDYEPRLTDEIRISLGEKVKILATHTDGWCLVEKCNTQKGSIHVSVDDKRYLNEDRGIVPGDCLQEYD

T14: Myo5, Q04439
T14 sequence (Q04439 1072-1160, looked up): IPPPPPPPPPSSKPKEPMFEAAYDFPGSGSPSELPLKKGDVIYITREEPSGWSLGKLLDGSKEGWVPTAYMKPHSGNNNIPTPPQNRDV

T15: Boi1, P38041
T15 sequence (P38041 1-86, looked up): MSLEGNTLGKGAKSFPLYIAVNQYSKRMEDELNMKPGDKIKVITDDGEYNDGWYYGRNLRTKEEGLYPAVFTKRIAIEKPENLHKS

T16: Pin3, Q06449
T16 sequence (Q06449 53-122, looked up): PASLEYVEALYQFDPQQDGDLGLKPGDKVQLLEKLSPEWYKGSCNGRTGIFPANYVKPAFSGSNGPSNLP

T17: Lsb1, P53281
T17 sequence (P53281 45-122, looked up): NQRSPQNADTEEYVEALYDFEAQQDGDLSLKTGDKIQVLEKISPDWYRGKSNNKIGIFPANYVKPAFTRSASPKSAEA

T18: Cyk3, Q07533
T18 sequence (Q07533 1-83, looked up): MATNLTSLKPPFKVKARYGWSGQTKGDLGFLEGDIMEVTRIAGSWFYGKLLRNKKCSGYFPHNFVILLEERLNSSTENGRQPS

T19: Lsb4, P32793
T19 sequence (P32793 402-468, looked up): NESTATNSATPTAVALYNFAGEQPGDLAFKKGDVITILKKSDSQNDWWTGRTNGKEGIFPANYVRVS

T20: Bzz1-1, P38822
T20 sequence (P38822 478-572, looked up): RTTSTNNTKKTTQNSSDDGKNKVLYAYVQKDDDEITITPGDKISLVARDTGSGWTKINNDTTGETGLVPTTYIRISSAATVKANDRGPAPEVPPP

T21: Nbp2, Q12163
T21 sequence (Q12163 103-180, looked up): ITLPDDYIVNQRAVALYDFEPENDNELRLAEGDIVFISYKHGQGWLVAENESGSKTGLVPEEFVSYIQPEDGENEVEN


Target: T1, Lsb3, P43603
Assay: SPOT array
Conditions: median of control spots 406

SPOT intensity | Binder
0 | PIVPSSPAPPLPLSG
0 | VNIPSPSSSPPPIPK
0 | ISPPASPPPEFDFSK

Target: T2, Cdc25, P04821
Assay: SPOT array
Conditions: median of control spots 969

SPOT intensity | Binder
0 | PIVPSSPAPPLPLSG
0 | VNIPSPSSSPPPIPK
0 | ISPPASPPPEFDFSK

Target: Rvs167, P39743
Assay: SPOT array
Conditions: median of control spots 2707

Chain of Rvs167, P39743 (P39743 419-482): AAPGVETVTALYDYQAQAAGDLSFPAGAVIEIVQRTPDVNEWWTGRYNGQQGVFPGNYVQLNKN

SPOT intensity | Binder
0 | PIVPSSPAPPLPLSG
0 | VNIPSPSSSPPPIPK
0 | ISPPASPPPEFDFSK

Target: T3, Bzz1-2, P38822
Assay: SPOT array
Conditions: median of control spots 4538

SPOT intensity | Binder
0 | PIVPSSPAPPLPLSG
0 | VNIPSPSSSPPPIPK
0 | ISPPASPPPEFDFSK

Target: T4, Hse1, P38753
Assay: SPOT array
Conditions: median of control spots 1727

SPOT intensity | Binder
0 | PIVPSSPAPPLPLSG
8 | VNIPSPSSSPPPIPK
0 | ISPPASPPPEFDFSK

Target: T5, Pex13, P80667
Assay: SPOT array
Conditions: median of control spots 1341

SPOT intensity | Binder
0 | PIVPSSPAPPLPLSG
0 | VNIPSPSSSPPPIPK
0 | ISPPASPPPEFDFSK

Target: T6, Boi2, P39969
Assay: SPOT array
Conditions: median of control spots 1161

SPOT intensity | Binder
0 | PIVPSSPAPPLPLSG
0 | VNIPSPSSSPPPIPK
0 | ISPPASPPPEFDFSK

Target: T7, Bud14, P27637
Assay: SPOT array
Conditions: median of control spots 956

SPOT intensity | Binder
0 | PIVPSSPAPPLPLSG
1 | VNIPSPSSSPPPIPK
0 | ISPPASPPPEFDFSK

Target: T8, Hof1, Q05080
Assay: SPOT array
Conditions: median of control spots 4086

SPOT intensity | Binder
0 | PIVPSSPAPPLPLSG
0 | VNIPSPSSSPPPIPK
0 | ISPPASPPPEFDFSK

Target: GST
Assay: SPOT array
Conditions: median of control spots 978

SPOT intensity | Binder
0 | PIVPSSPAPPLPLSG
0 | VNIPSPSSSPPPIPK
0 | ISPPASPPPEFDFSK

Target: T9, Abp1, P15891
Assay: SPOT array
Conditions: median of control spots 935

SPOT intensity | Binder
0 | PIVPSSPAPPLPLSG
1 | VNIPSPSSSPPPIPK
0 | ISPPASPPPEFDFSK

Target: Myo3, P36006
Assay: SPOT array
Conditions: median of control spots 468

SPOT intensity | Binder
399 | PIVPSSPAPPLPLSG
464 | VNIPSPSSSPPPIPK
233 | ISPPASPPPEFDFSK

Target: T10, Sla1-3, P32790
Assay: SPOT array
Conditions: median of control spots 5475

SPOT intensity | Binder
0 | PIVPSSPAPPLPLSG
3 | VNIPSPSSSPPPIPK
0 | ISPPASPPPEFDFSK

Target: T11, Sla1-2, P32790
Assay: SPOT array
Conditions: median of control spots 712

SPOT intensity | Binder
0 | PIVPSSPAPPLPLSG
0 | VNIPSPSSSPPPIPK
0 | ISPPASPPPEFDFSK

Target: T12, Bbc1, P47068
Assay: SPOT array
Conditions: median of control spots 796

SPOT intensity | Binder
0 | PIVPSSPAPPLPLSG
0 | VNIPSPSSSPPPIPK
0 | ISPPASPPPEFDFSK

Target: T13, Fus1, P11710
Assay: SPOT array
Conditions: median of control spots 1200

SPOT intensity | Binder
1 | PIVPSSPAPPLPLSG
0 | VNIPSPSSSPPPIPK
0 | ISPPASPPPEFDFSK

Target: Bem1-1, P29366
Assay: SPOT array
Conditions: median of control spots 4282

Chain of Bem1-1, P29366 (P29366 55-141): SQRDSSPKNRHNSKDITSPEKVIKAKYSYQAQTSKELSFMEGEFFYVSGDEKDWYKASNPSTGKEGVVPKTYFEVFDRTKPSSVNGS

SPOT intensity | Binder
0 | PIVPSSPAPPLPLSG
0 | VNIPSPSSSPPPIPK
0 | ISPPASPPPEFDFSK

Target: Bem1-2, P29366
Assay: SPOT array
Conditions: median of control spots 4347

Chain of Bem1-2, P29366 (P29366 139-227): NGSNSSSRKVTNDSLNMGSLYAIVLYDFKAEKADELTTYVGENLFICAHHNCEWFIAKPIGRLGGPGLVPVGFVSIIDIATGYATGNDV

SPOT intensity | Binder
0 | PIVPSSPAPPLPLSG
49 | VNIPSPSSSPPPIPK
0 | ISPPASPPPEFDFSK

Target: T14, Myo5, Q04439
Assay: SPOT array
Conditions: median of control spots 471

SPOT intensity | Binder
434 | PIVPSSPAPPLPLSG
529 | VNIPSPSSSPPPIPK
91 | ISPPASPPPEFDFSK

Target: T15, Boi1, P38041
Assay: SPOT array
Conditions: median of control spots 1162

SPOT intensity | Binder
0 | PIVPSSPAPPLPLSG
0 | VNIPSPSSSPPPIPK
0 | ISPPASPPPEFDFSK

Target: T16, Pin3, Q06449
Assay: SPOT array
Conditions: median of control spots 2171

SPOT intensity | Binder
0 | PIVPSSPAPPLPLSG
0 | VNIPSPSSSPPPIPK
0 | ISPPASPPPEFDFSK

Target: Sho1, P40073
Assay: SPOT array
Conditions: median of control spots 1148

Chain of Sho1, P40073 (P40073 287-367): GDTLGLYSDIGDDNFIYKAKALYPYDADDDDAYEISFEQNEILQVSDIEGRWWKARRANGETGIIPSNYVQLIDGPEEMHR

SPOT intensity | Binder
0 | PIVPSSPAPPLPLSG
0 | VNIPSPSSSPPPIPK
0 | ISPPASPPPEFDFSK

Target: T17, Lsb1, P53281
Assay: SPOT array
Conditions: median of control spots 388

SPOT intensity | Binder
0 | PIVPSSPAPPLPLSG
0 | VNIPSPSSSPPPIPK
0 | ISPPASPPPEFDFSK

Target: T18, Cyk3, Q07533
Assay: SPOT array
Conditions: median of control spots 1451

SPOT intensity | Binder
0 | PIVPSSPAPPLPLSG
0 | VNIPSPSSSPPPIPK
1 | ISPPASPPPEFDFSK

Target: T19, Lsb4, P32793
Assay: SPOT array
Conditions: median of control spots 397

SPOT intensity | Binder
0 | PIVPSSPAPPLPLSG
0 | VNIPSPSSSPPPIPK
0 | ISPPASPPPEFDFSK

Target: T20, Bzz1-1, P38822
Assay: SPOT array
Conditions: median of control spots 4446

SPOT intensity | Binder
1 | PIVPSSPAPPLPLSG
1 | VNIPSPSSSPPPIPK
0 | ISPPASPPPEFDFSK

Target: T21, Nbp2, Q12163
Assay: SPOT array
Conditions: median of control spots 357

SPOT intensity | Binder
0 | PIVPSSPAPPLPLSG
2 | VNIPSPSSSPPPIPK
0 | ISPPASPPPEFDFSK
